In article PMC10115243 (Nature plants, 2023):

Legend:
[1] = target: GalS1-ΔSTEM (Populus trichocarpa GalS1 lacking the stem region, residues 73-113) (Populus trichocarpa); test: SEC-MALS
[2] = target: Populus trichocarpa galactan synthase 1 (GalS1), residues 73-495, tag removed (Populus trichocarpa); test: SEC-MALS
[3] = target: Populus trichocarpa galactan synthase 1 (GalS1), residues 73-495, tag removed (Populus trichocarpa); test: SEC-MALS + other: SAXS

Row | Substance | stoichiometry N [1] | stoichiometry N [2] | stoichiometry N [3]
1 | GalS1-ΔSTEM (Populus trichocarpa GalS1 lacking the stem region, residues 73-113) (domain or fragment) | 2 |  | 
2 | Populus trichocarpa galactan synthase 1 (GalS1), residues 73-495, tag removed (enzyme) |  | 2 | 2
